# Measurements published in PMC5663709.
# Key:
# [1] = target: recombinant hemagglutinin (HA) trimer of H1N1 A/California/07/2009, ectodomain (influenza A virus A/California/07/2009 (H1N1)) (UniProt C3W5X2); test: ELISA
# [2] = target: recombinant hemagglutinin (HA) trimer of H5N1 A/Vietnam/1203/2004, ectodomain (influenza A virus A/Vietnam/1203/2004 (H5N1)) (UniProt Q6DQ33); test: ELISA
# [3] = target: cell surface-expressed H3N2 WN/05 HA trimer (influenza A virus A/Wisconsin/67/2005 (H3N2)); test: FACS
# [4] = target: recombinant hemagglutinin (HA) trimer of H3N2 A/Wisconsin/67/2005, ectodomain (influenza A virus A/Wisconsin/67/2005 (H3N2)); test: ELISA
# [5] = target: recombinant hemagglutinin (HA) trimer of H7N9 A/Anhui/1-BALF_RG17/2013, ectodomain (influenza A virus A/Anhui/1-BALF_RG17/2013 (H7N9)); test: ELISA
Substance,EC50 [1] [µg/mL],EC50 [2] [µg/mL],EC50 [3] [µg/mL],EC50 [4] [µg/mL],EC50 [5] [µg/mL]
F10,0.0122,0.021,–,–,–
CR8020,–,–,0.569,0.0194,–
FI6V3,0.0107,0.00648,0.065,0.0789,0.314
C05,–,–,0.13,0.00844,–
